Data reported in patent US9416162B2, “Peptides having reduced toxicity that stimulate cholesterol efflux” (The Regents of the University of California, priority 2013, dated 2016).
Non-standard residues stand in square brackets, D forms with d. No end group written: not given here. Cit = NC(=O)NCCC[C@H](N)C(=O)O

Key:
Wistar rats = assay: High-dose IV toxicity of ATI-5261 in rats (plasma ALT, AST, TG, unesterified cholesterol); assay type: in vivo, rat
Description: Peptides or peptidomimetics of the invention can be evaluated for toxicity using known assays. Examples of such assays are illustrated in the Examples section. Toxicity is typically assayed in a rat, rabbit, mouse, monkey or dog model. In an illustrative assay, such as that described in Example 1, a peptide is administered intravenously using a rabbit or rat model at doses of 3, 30, and 300 mg/kg and vehicle alone is also administered at 48 hour intervals for a total of four injections. Safety chemistry panels including plasma alanine aminotransferase (ALT), aspartate amino transferase (AST), and creatine kinase (CK) can then be determined in the blood. The presence of elevated levels of these enzymes in the blood compared to control normal values is indicative of toxicity. A peptide of the invention is typically considered to be non-toxic or to have little toxicity, when the results using the highest dose, 300 mg/kg in this illustrative assay, are equivalent (fall within the standard deviation) of the values measured for the control animals that received vehicle alone, or are no more than 2 or 3 times background obtained with vehicle alone. In some embodiments, a toxicity assay is performed where the toxicity of a peptide of the invention is compared to that to ATI-5261. […]
Cytotoxicity of an HDL mimetic peptide ATI-5261 at high doses was evaluated in rats and rabbits (FIG. 1). […]

C57Bl/6 mice = assay: Safety and TG elevating effects after IP injection in C57Bl/6 mice (plasma CPK, ALT, AST, lipids); assay type: in vivo
Description: The high-dose cytotoxic response of ATI-5261 observed in rat, rabbit and cynomolgus monkey is additionally recapitulated in mice (FIG. 4). Male chow-fed C57bl/6 mice were injected intraperitonelly (IP) with 30 or 300 mg/kg of lipid-fee ATI-5261. Blood was collected via the retro-orbital plexus 4 h after peptide injection and plasma subsequently obtained for measurement of CPK (Panel A) and ALT and AST activities (Panel B, ALT left bars; AST, right bars). Values are means±SD, n=4 mice per group.
This example illustrates that aromatic phenylalanine residues associated with the non-polar surface of ATI-5261 contributed to the majority of the peptide toxicity (FIG. 5). […] Blood was collected via retro-orbital plexus 4 h after injection for isolation of plasma. Levels of plasma CPK (Panel A), ALT (panel B) and AST (Panel C) were determined as described in FIG. 1. Values are means±SD, n=4 mice per group.
All values (mg/dl) are means±SD, n=4, determined at 4 and 6 h post treatment with peptide.

SR-B1 = target: T1, SR-B1 (Rattus norvegicus, UniProt P97943); assay: SR-B1 mediated cholesterol efflux from Fu5AH cells; assay type: cell-based; conditions: 50 μg peptide/ml serum-free medium
T1 construct: endogenous in cells; host or cells: Fu5AH cells
T1 sequence (P97943 1-509): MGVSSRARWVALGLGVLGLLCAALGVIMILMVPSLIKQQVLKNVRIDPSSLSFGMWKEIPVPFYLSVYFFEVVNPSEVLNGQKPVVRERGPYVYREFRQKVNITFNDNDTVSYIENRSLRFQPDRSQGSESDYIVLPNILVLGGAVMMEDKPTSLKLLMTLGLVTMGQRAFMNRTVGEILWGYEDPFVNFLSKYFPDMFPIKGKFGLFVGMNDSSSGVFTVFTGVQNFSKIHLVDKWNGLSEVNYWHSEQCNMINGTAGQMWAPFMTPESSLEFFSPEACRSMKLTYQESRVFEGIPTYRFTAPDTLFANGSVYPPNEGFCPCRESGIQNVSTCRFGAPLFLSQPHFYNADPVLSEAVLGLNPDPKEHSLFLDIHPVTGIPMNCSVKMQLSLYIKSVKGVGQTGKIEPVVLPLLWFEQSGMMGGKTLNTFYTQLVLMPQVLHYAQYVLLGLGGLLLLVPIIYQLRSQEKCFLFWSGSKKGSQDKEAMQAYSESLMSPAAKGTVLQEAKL
Description: To further evaluate potential anti-atherogenic mechanisms of CS6253, Fu5AH cells labeled with [3H]cholesterol were used in efflux experiments. The citrulline form of LeuATI-5261 (CS6253) lipidated with POPC was used as a cholesterol efflux acceptor at 50 μg peptide/ml serum-free medium. Panel A-Time-course for SR-B1 mediated cholesterol efflux from cells. […] Panel B—Comparison between CS6253 and ATI-5261 in mediating cellular cholesterol efflux via SRB1. [3H]cholesterol labeled Fu5AH cells were incubated with either lipid-free acceptors or acceptors formulated with POPC.

| Substance | plasma triglycerides and cholesterol (Wistar rats; male Wistar rats, IV 3, 30, 300 mg/kg) | cytotoxic response (plasma ALT and AST) (Wistar rats; male chow-fed Wistar rats, IV 3, 30 and 300 mg/kg at 48 h intervals, 4 injections) | plasma TG, total and unesterified (free) cholesterol (FC) (C57Bl/6 mice; C57Bl/6 mice, 300 mg/kg, 4 and 6 h post treatment) | cytotoxic/toxic response (plasma CPK, ALT, AST) (C57Bl/6 mice; male chow-fed C57Bl/6 mice, IP 300 mg/kg, plasma 4 h after injection) | SR-B1 mediated cholesterol efflux (SR-B1) |
| --- | --- | --- | --- | --- | --- |
| ATI-5261: HDL mimetic peptide, parent peptide; triglyceride elevating and muscle toxic peptide used as positive control (EVRSKLEEWFAAFREFAEEFLARLKS) [reference compound] | increased plasma triglycerides and cholesterol | induced a cytotoxic response | marked increase | High levels of cytotoxic markers |  |
| EVCitSKLEEWLAALCitELAEELLARLKS (SEQ ID NO:2) (EV[Cit]SKLEEWLAAL[Cit]ELAEELLARLKS) [CS6253, citrulline form of LeuATI-5261, R3,14→Citrulline, 26-mer] |  |  |  |  | relatively poor activity |
